According to patent publication US20110112012A1 (UNIVERSITY OF GEORGIA STUDIES RESEARCH FOUNDATION, published 2011):

Biological target: T1, Cry4Ba toxin (Cry4BRA mutant, R203 replaced by A) of Bacillus thuringiensis israelensis (Bacillus thuringiensis israelensis, UniProt P05519 51-641)
T1 construct: domain: ~66 kDa toxin mosquitocidal fragment; also called labeled Cry4Ba
T1 sequence: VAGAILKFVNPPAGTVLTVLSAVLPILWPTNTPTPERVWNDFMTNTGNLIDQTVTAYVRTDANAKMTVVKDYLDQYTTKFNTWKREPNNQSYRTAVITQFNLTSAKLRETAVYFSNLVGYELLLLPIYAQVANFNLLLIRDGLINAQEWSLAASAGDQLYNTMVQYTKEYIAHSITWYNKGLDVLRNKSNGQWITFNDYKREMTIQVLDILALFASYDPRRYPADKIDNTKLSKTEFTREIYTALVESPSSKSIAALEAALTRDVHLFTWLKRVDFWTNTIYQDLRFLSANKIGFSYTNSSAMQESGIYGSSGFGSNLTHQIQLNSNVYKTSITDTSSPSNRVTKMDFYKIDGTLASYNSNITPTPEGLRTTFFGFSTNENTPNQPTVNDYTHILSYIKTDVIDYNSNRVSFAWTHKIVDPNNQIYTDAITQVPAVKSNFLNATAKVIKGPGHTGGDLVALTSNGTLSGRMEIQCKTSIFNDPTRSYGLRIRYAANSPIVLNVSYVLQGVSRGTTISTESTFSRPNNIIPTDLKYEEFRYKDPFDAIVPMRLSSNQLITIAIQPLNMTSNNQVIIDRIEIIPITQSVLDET
Assay: microplate ELISA, Cry4Ba coated, biotinylated fragment titrated, one site saturation fit

B1: CR11-MPED peptide of AgCad1 (amino acids 1358G to 1569A), expressed in E. coli (peptide)
chain: GITTNDRVPKALFRVYAEDPDEDEIIRYELVNGTAVGENLQTDGLPFRLHPDSGELTLTSKVQPNQNGYYQLTLIAFDRDDTHNDTVPAKVYIVSESNRVTFVFLNSVEEIDQPDVRKFLAQELTGAYEMECNIDDIDQTTASDGRQAGGSSSALTDVRTHFIQDNQAVEASRIQQRSSNRTFVTVLKTTLRTRGLSLQDVPPLATEALTEA
notes: Biotinylated with sulfo-NHS-PC-biotin for the microplate assay; also called AgCad CR11-MPED; AgCad-CR11-MPED
Kd: 393 nM

B2: CR9-11 fragment of AgCad1, expressed in E. coli (peptide)
chain: GSPLPKFEAIDDDGGIYGDVTFSLTSTNDGEQDHEVFRVDKVDNKTGLLVLENSLAVQPFPKNYSITVIARDGGDRQSEAAIHVVFINMTGEPAFLEPTFDTDFTENEEGRDERRQLPFAEDPKNAGLPPGAETNVYYFIDKTYGNASHLFQLDRVSNVLQLAQLLDREEIPTPEIRIVATNNENSPPDTVLESSPSLLVVRIKVNDVNDNPPVFQQRLYAAGITTNDRVPKALFRVYAEDPDEDEIIRYELVNGTAVGENLQTDGLPFRLHPDSGELTLTSKVQPNQNGYYQLTLIAFDRDDTHNDTVPAKVYIVSESNRVTFVF
notes: Biotinylated for the microplate assay; also called AgCad CR9-11; AgCad-CR9-11
Kd: 173 nM
